Assay results taken from paper PMC12136788.

Assays:
[1] = molecular target: T1, MSI1 full-length (mouse, UniProt Q61474 1-362); assay: fluorescence polarization; FP: 5 nM RNA, 20 mM Hepes (pH not given), 5 mM DTT, 137.5 mM NaCl, 0.01% Triton X-100, 10 ng/ul BSA, 2 U/ml SUPERase-In; 15 min at 4 C, read at 25 C; positional
[2] = molecular target: T2, UNK (called full-length) (UniProt Q9C0B0 30-357); assay: fluorescence polarization; 50 nM unlabeled N16 RNA; FP: 5 nM RNA, 20 mM Hepes (pH not given), 5 mM DTT, 137.5 mM NaCl, 0.01% Triton X-100, 10 ng/ul BSA, 2 U/ml SUPERase-In; 15 min at 4 C, read at 25 C; positional
T2 sequence: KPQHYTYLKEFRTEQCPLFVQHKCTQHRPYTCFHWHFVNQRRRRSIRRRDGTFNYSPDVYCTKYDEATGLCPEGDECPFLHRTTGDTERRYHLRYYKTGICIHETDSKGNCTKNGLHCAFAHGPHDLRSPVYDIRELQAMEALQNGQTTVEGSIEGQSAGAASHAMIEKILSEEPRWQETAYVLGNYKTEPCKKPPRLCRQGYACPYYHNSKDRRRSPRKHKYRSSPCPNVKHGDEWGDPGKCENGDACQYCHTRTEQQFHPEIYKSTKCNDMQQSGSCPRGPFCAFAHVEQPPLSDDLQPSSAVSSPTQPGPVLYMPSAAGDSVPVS

[3] = molecular target: MSI1 swap (mouse, UniProt Q61474 1-19+109-191+104-108+20-103+192-362, internal_change); assay: fluorescence polarization; FP: 5 nM RNA, 20 mM Hepes (pH not given), 5 mM DTT, 137.5 mM NaCl, 0.01% Triton X-100, 10 ng/ul BSA, 2 U/ml SUPERase-In; 15 min at 4 C, read at 25 C; positional
MSI1 swap, sequence (Q61474 other isoform, or with tags, fused parts or gaps): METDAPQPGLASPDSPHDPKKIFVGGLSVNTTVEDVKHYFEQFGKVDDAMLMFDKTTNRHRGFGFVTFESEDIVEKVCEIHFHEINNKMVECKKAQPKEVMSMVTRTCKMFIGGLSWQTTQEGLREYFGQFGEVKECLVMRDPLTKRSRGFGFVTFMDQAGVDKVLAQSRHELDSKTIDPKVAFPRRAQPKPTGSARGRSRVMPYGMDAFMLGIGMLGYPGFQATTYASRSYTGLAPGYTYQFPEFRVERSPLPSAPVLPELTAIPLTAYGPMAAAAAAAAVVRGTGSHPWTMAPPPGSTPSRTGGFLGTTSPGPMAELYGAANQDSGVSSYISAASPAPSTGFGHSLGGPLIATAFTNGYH

[4] = molecular target: MSI2 full-length (UniProt Q96DH6 1-328); assay: as above
MSI2 full-length, sequence (Q96DH6 whole entry): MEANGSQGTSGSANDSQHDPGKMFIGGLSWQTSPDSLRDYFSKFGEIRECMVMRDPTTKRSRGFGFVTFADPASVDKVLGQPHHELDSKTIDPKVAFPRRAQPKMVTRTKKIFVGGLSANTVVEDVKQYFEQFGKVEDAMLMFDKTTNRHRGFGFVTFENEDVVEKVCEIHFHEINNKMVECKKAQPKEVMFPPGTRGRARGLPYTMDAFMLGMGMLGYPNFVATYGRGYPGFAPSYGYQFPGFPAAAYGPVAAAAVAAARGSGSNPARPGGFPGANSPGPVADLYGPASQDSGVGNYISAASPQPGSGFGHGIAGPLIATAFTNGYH

[5] = molecular target: T2, UNK (called full-length); assay: fluorescence polarization; 50 nM unlabeled N16 RNA; FP: 5 nM RNA, 20 mM Hepes (pH not given), 5 mM DTT, 137.5 mM NaCl, 0.01% Triton X-100, 10 ng/ul BSA, 2 U/ml SUPERase-In; 15 min at 4 C, read at 25 C; positional; remark: listed apart in the source
[6] = molecular target: T1, MSI1 full-length; assay: fluorescence polarization; FP: 5 nM RNA, 20 mM Hepes (pH not given), 5 mM DTT, 137.5 mM NaCl, 0.01% Triton X-100, 10 ng/ul BSA, 2 U/ml SUPERase-In; 15 min at 4 C, read at 25 C; positional; remark: listed apart in the source
[7] = molecular target: T2, UNK (called full-length); assay: as above

T1 sequence (Q61474 whole entry): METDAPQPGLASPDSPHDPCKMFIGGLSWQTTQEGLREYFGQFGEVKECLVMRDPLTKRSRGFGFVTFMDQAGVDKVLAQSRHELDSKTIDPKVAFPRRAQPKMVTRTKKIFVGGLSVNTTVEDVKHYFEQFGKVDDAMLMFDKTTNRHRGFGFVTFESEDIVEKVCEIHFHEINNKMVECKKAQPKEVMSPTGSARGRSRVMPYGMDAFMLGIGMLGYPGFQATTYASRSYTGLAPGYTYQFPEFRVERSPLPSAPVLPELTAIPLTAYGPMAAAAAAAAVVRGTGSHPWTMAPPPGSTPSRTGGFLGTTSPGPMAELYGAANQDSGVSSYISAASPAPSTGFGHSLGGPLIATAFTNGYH

## AAAAAAAAUUAGAAAAAA (ssRNA) [mono-UAG FP RNA]
[1]
  Kd: 126 nM
[2]
  Kd: 400 nM
[3]
  binding signal: ~2 fold weaker than MSI1 on mono-UAG

## AAAAAUUAGUUAAUA (ssRNA) [UAG-AUA FP RNA]
[2]
  Kd: 90 nM

## UAGUUUAGUUUAGUU (ssRNA) [tri-UAG FP RNA]
[4]
  Kd: 2 nM
[1]
  Kd: 5 nM

## CCCCCCAAUUAGAAAAAA (ssRNA) [CCC-UAG FP RNA]
[5]
  binding signal: ~2 fold tighter than mono-UAG

## CCCCCCAAUUAGUUAAUA (ssRNA) [CCC-UAG-AUA FP RNA]
[5]
  binding signal: ~1 fold vs UAG-AUA (little impact of upstream C)

## UUAGUUAGUU (ssRNA) [dual-UAG FP RNA]
[3]
  binding signal: ~1 fold vs MSI1 on dual-UAG (no observable Kd difference)
[6]
  binding signal: ~10 fold tighter than mono-UAG

## CCCCCCCCCCCCCCCC (ssRNA) [polyC FP RNA]
[7]
  binding result: no binding

## UUUUUUUUUUUUUUUU (ssRNA) [polyU FP RNA]
[7]
  binding result: no binding
